One may read the Kd as the constant that tells how readily two partners part at equilibrium. Low readings indicate higher affinity, high ones lower affinity. In general, kon refers to the rate constant with which the complex forms. A lower kon goes with slower complex formation.

This passage reports Kd and kon results from patent US20170015742A1 (published 2017).

Substitutions are numbered along the chain they refer to. In names and notes the source's numbering stands. Several values for one entry are separate records, joined by “and”; a condition that tells them apart may be missing. Equal values may be shown once. A value given as a limit tells only on which side of the number the result lay.

First the molecules themselves.
B1: BEW-6C2-C8 (antibody, IgG2b, V domains shown)
VH: EVQLVESGGGLVQPGSSLKLSCAASGFTFSYYGMHWIRQAPKKGLEWMALIYYDSSKMYYADSVKGRFTISRDNSKNTLYLEMNSLRSEDTAMYYCAAGGTAPVYWGQGVMVTVSS
VL: NIQLTQSPSLLSASVGDRVTLSCKGSQNIANYLAWYQQKLGEAPKLLIYNTDSLQTGIPSRFSGSGSGTDYTLTISSLQPEDVATYFCYQSNNGYTFGAGTKLELR
B2: BEW-8E6-E4 (antibody, IgG2a, V domains shown)
VH: QIQLVQSGPELKKPGESVKISCKASGYTFTDYAMHWVKQAPGKVLKWMGWINTFTGKPTYIDDFKGRFVFSLEASASTANLQISDLKNEDTATYFCARGNYYSGYWYFDFWGPGTMVTMSS
VL: DIQMTQSPASLSASLGETISIECRASEDISSNLAWYQQKSGKSPQLLIFAANRLQDGVPSRFSGSGSGTQFSLKISGMQPEDEGDYFCLQGSKFYTFGAGTKLELK
B3: BEW-1E3-D6 (antibody, IgG2b, V domains shown)
VH: QIQLVQSGPELKKPGESVKISCKASGYPFTNSGMYWVKQAPGQGLQYMGWINTEAGKPTYADDFKGRFVFFLETSASTAYLQINNLKNEDMATYFCARWGYISDNSYGWFDYWGQGTLVTVSS
VL: DTVLTQSPALAVSPGERVSISCRASEGVYSYMHWYQQNPGQQPKLLIYKASNLASGVPARFSGSGSGTDFTLTIDPVEADDTATYFCHQNWNDPLTFGSGTKLEIK
B4: BEW-1B10-B9-C3 (antibody, IgG2a, V domains shown)
VH: EVQLVESGGGLVQPGRSLKLSCAASGFSFSKYDMAWFRQTPTKGLEWVASITTSGVGTYYRDSVKGRFTVSRDNAKSTLYLQMDSLRSEDTATYYCARGYGAMDAWGQGTSVTVSS
VL: DIQMTQSPASLSASLEEIVTITCKASQDIDDYLSWYQQKPGKSPQLVIYAATRLADGVPSRFSGSGSGTQYSLKISRLQVDDSGIYYCLQSSSTPWTFGGGTNLELK
B5: BDB-4G8-D4 (antibody, IgG2b, V domains shown)
VH: QIQLVQSGPELKKPGESVKISCKASGYTFTNYGMYWVKQAPGQGLQYMGWINTETGKPTYADDFKGRFVFFLETSASTAYLQINNLKNEDMATYFCARTNYYYRSYIFYFDYWGQGTMVTVSS
VL: DTVLTQSPALAVSPGERVSISCRASESVSTHMHWYQQKPGQQPKLLIYGASNLESGVPARFSGSGSGTDFTLTIDPVEADDTATYFCQQSWNDPFTFGAVTKLELK
B6: BEW-9A8-E2 (antibody, IgG2a, V domains shown)
VH: QIQLVQSGPELKKPGESVKISCKASGYTFTNYGMYWVKQAPGQGLQYMGWINTETGKPIYADDFKGRFVFFLETSASTAYLQINNLKNEDMATFFCARVDYDGSFWFAYWGQGTLVTVSS
VL: B5 VL with H31V, M32I, Y48H, S90H, F95P, V100G, L105M
B7: BED-4G10-C8 (antibody, IgG2b, V domains shown)
VH: QVQLQQSGTELVKPGSSVKISCKASGYTFTSNYMHWIRQQPGNGLEWIGWIYPGDGDTNYNHNFNGKATLTADKSSSTAYMQLSSLTSEDFAVYFCASSTRAIPGWFTYWGQGTLVTVSS
VL: B5 VL with R23W, H31L, P39L, S62R, N92S, F95Y, V100G
B8: BEW-10H2-B9 (antibody, IgG2b, V domains shown)
VH: QIQLVQSGPELKKPGESVKISCKASGYSFTNFGLYWVKQAPGQGLQYMGWIDTETGKPTYADDFRGRFVFFLETSASTAYLQINNLKNEDMATYFCARVYGYPSWYFDFWGPGTMVTVSS
VL: DIQMTQSPASLSTSLEEIVTITCQASQDIDNYLSWYQQKPGKSPQLLIHSATSLADGVPSRFSGSRSGTQFSLKIHRLQVEDTGIYYCLQHFFPPWTFGGGTKLELK
B9: BEW-5C3-E7 (antibody, IgG2b, V domains shown)
VH: QIQLVQSGPELKKPGESVKISCKASGYTFTNYGVYWVKQAPGQGLQYMGWINTETGKPTYADDFKGRFVFFLETSTNTAYLQINNLKNEDMATFFCARARQLDWFVYWGQGTLVTVSS
VL: DTVLTQSPALTVSPGERVSISCRARESLTTSLCWFQQKPGQQPKLLIYGASKLESGVPARFSGSGSGTDFTLTIDPVEADDTATYFCQQSWYDPPTFGGGTKLELK
B10: BEW-3A1-D10-G9 (antibody, IgG2b, V domains shown)
VH: QVQLEQSGAELVKPGTSVKLSCMASGYTSSSNHMNWMKQTTGQGLEWIGIINPGSGGTRYNVKFEGKATLTVDKSSSTAFMQLNSLTPEDSAVYYCARAGFPGPFSYYAMGAWGQGTSVTVSS
VL: DIQMTQSPPVLSASVGDRVTLSCKASQNIHNNLDWYQQKHGEAPKLLIFYTNNLQTGIPSRFSGSGSGTDYTLTISSLQPEDVATYYCYQYNSGYTFGAGTKLELK
B11: 4G8.3-LS-9E8.4 (g) (PR-1572106) (bispecific antibody, human IgG1, kappa, L234A L235A)
heavy: EVQLVQSGSELKKPGASVKVSCKASGYTFTNYGMYWVRQAPGQGLEWMGWINTETGKPTYADDFKGRFVFSLDTSVSTAYLQISSLKAEDTAVYYCARTNYYYRSYIFYFDYWGQGTMVTVSSASTKGPSVFPLAPEVTLRESGPALVKPTQTLTLTCTFSGFSLSTYGMGVGWIRQPPGKALEWLANIWWDDDKYYNPSLKNRLTISKDTSKNQVVLTMTNMDPVDTATYYCARIESIGTTYSFDYWGQGTMVTVSSASTKGPSVFPLAPSSKSTSGGTAALGCLVKDYFPEPVTVSWNSGALTSGVHTFPAVLQSSGLYSLSSVVTVPSSSLGTQTYICNVNHKPSNTKVDKKVEPKSCDKTHTCPPCPAPEAAGGPSVFLFPPKPKDTLMISRTPEVTCVVVDVSHEDPEVKFNWYVDGVEVHNAKTKPREEQYNSTYRVVSVLTVLHQDWLNGKEYKCKVSNKALPAPIEKTISKAKGQPREPQVYTLPPSREEMTKNQVSLTCLVKGFYPSDIAVEWESNGQPENNYKTTPPVLDSDGSFFLYSKLTVDKSRWQQGNVFSCSVMHEALHNAYTQKSLSLSPGK
light: DTVLTQSPATLSLSPGERATLSCRASESVSTHMHWYQQKPGQAPRLLIYGASNLESGVPARFSGSGSGTDFTLTISSLEPEDFAVYFCQQSWNDPFTFGQGTKLEIKRTVAAPEFVLTQSPGTLSLSPGERATLSCERSSGDIGDSYVSWYQQKPGQAPRLVIYADDQRPSGIPDRFSGSGSGTDFTLTISRLEPEDFAVYYCQSYDINIDIVFGGGTKVEIKRTVAAPSVFIFPPSDEQLKSGTASVVCLLNNFYPREAKVQWKVDNALQSGNSQESVTEQDSKDSTYSLSSTLTLSKADYEKHKVYACEVTHQGLSSPVTKSFNRGEC
notes: DVD-Ig: outer hBDB-4G8.3 (VEGF), inner hBDI-9E8.4 (PDGF), linkers HG-long/LK-short; Human IgG1 L234A, L235A, H435A with kappa
B12: 4G8.3-LS-9E8.4E (PR-1575835) (bispecific antibody, human IgG1, kappa, L234A L235A)
heavy: B11 heavy
light: B11 light with D145E
notes: DVD-Ig: outer hBDB-4G8.3 (VEGF), inner hBDI-9E8.4E (PDGF), linkers HG-long/LK-short; Human IgG1 L234A, L235A, H435A with kappa

T1 sequence (P15692 other isoform, or with tags, fused parts or gaps limits assumed): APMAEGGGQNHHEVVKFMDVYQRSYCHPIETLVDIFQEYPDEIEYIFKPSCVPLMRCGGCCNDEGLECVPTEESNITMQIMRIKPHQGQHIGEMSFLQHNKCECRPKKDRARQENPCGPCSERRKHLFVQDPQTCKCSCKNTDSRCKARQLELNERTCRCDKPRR

One assay has as its target T1, Human VEGF-A 165 (human, UniProt P15692 207-395).
T1 construct: also called hVEGF165; huVEGF-A165
As to the kind of experiment: Biacore SPR (Example 1.1). How it is done: Unreacted moieties on the biosensor surface were blocked with ethanolamine. For kinetic analysis, rate equations derived from the 1:1 Langmuir binding model were fitted simultaneously to multiple antigen injections (using global fit analysis) with the use of Scrubber 2 (BioLogic Software), Biacore Biaevaluation 4.0.1 software or Biacore T100 Evaluation software. Purified antibodies or DVD-Ig molecules were diluted in running buffer for capture across goat anti-human Fc reaction surfaces. Antibodies or DVD-Ig molecules to be captured as a ligand (1 μg/ml) were injected over reaction matrices at a flow rate of 10 μl/minute. During the assay, all measurements were referenced against the capture surface alone (i.e., with no captured antibody or DVD-Ig molecule). […] The equilibrium dissociation constant KD (M) of the reaction between antibodies and the target antigen was then calculated from the kinetic rate constants by the following formula: KD=Koff/Kₒₙ. Binding was recorded as a function of time and kinetic rate constants were calculated. In this assay, on-rates as fast as 10⁶M⁻¹s⁻¹ and off-rates as slow as 10⁻⁶ s⁻¹ could be measured. […]
Background: In SPR one partner is held on a chip, and binding of the other changes the refractive index at the surface.
Take B1: the Kd came to 0.012 nM and the kon turned out to be 6.9e+06 M⁻¹ s⁻¹.
B2 yielded a dissociation constant Kd of 0.017 nM and a kon of 6.9e+06 M⁻¹ s⁻¹.
In the case of B3, the affinity, expressed as Kd, was 0.01 nM and the kon was 1.4e+07 M⁻¹ s⁻¹.
In the case of B4, binding was put at a Kd of 0.016 nM and the kon was found to be 4.4e+06 M⁻¹ s⁻¹.
With B5, the Kd is ≤ 0.00081 nM and 0.0012 nM; the kon was ≥ 1e+07 M⁻¹ s⁻¹ and 1.4e+07 M⁻¹ s⁻¹.
As for B6, the equilibrium dissociation constant (Kd) is 0.00096 nM and the kon was found to be 7.4e+06 M⁻¹ s⁻¹.
B7 showed a Kd of 0.06 nM and a kon of 1.8e+07 M⁻¹ s⁻¹.
For the molecule B8, the dissociation constant (Kd) was found to be 0.011 nM and the kon amounted to 2.4e+07 M⁻¹ s⁻¹.
As to B9, the Kd stood at 0.0039 nM and the kon came out at 1.2e+07 M⁻¹ s⁻¹.
For B10 the same measures were 0.14 nM and 1e+07 M⁻¹ s⁻¹.

In another assay the target is T2, VEGF-A (human, UniProt P15692 207-395).
T2 construct: also called hVEGF165
T2 sequence (P15692 other isoform, or with tags, fused parts or gaps limits assumed): as above
The assay is described as follows: Biacore SPR; DVD-Ig captured on anti-human Fc, antigen injected. How it is done:
(§1) For example, approximately 9000 RU of goat anti-human Fc specific polyclonal antibody (Thermo Fisher Scientific Inc., Rockford, Ill.) diluted in 10 mM sodium acetate (pH 4.5) is directly immobilized across a CM5 research grade biosensor chip using a standard amine coupling kit according to manufacturer's instructions and procedures at 25 μg/ml. Unreacted moieties on the biosensor surface were blocked with ethanolamine. For kinetic analysis, rate equations derived from the 1:1 Langmuir binding model were fitted simultaneously to multiple antigen injections (using global fit analysis) with the use of Scrubber 2 (BioLogic Software), Biacore Biaevaluation 4.0.1 software or Biacore T100 Evaluation software. Purified antibodies or DVD-Ig molecules were diluted in running buffer for capture across goat anti-human Fc reaction surfaces. Antibodies or DVD-Ig molecules to be captured as a ligand (1 μg/ml) were injected over reaction matrices at a flow rate of 10 μl/minute. During the assay, all measurements were referenced against the capture surface alone (i.e., with no captured antibody or DVD-Ig molecule). […] The equilibrium dissociation constant KD (M) of the reaction between antibodies and the target antigen was then calculated from the kinetic rate constants by the following formula: KD=Koff/Kₒₙ. Binding was recorded as a function of time and kinetic rate constants were calculated.
In the case of B11, the Kd came out at 0.0081 nM and the kon was determined as 6.3e+06 M⁻¹ s⁻¹.
Consider B12, for which the Kd stood at 0.01 nM and the kon came to 5.8e+06 M⁻¹ s⁻¹.

The target of another assay is T3, PDGF-BB (human, UniProt P01127 82-190, limits assumed).
T3 construct: also called human PDGF-BB; hPDGF-BB
T3 sequence (P01127 82-190 limits assumed): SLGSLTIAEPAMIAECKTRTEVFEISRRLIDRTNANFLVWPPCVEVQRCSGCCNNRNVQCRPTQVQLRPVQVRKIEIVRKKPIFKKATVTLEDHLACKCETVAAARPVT
The assay is described as above. How it is done: as §1
Regarding B11, the affinity, expressed as Kd, was 0.011 nM and the on-rate constant (kon) was 1.8e+07 M⁻¹ s⁻¹.
As for B12, binding was put at a Kd of 0.014 nM and the kon turned out to be 2e+07 M⁻¹ s⁻¹.
